Test results taken from article PMC7049685, “The C-terminal tail of the yeast mitochondrial transcription factor Mtf1 coordinates template strand alignment, DNA scrunching and timely transition into elongation” (Nucleic Acids Research, 2020).
Like-named read-outs stand apart in the source and are kept apart here. Each block holds one molecule with its values, some of them ahead of it.

Columns and labels:
[1] = target: T1, Rpo41-Mtf1 (yeast mitochondrial RNA polymerase with initiation factor Mtf1) on promoter DNA (Saccharomyces cerevisiae, UniProt P13433); assay: 2-aminopurine fluorescence titration, hyperbolic fit; type: binding
T1 construct: assembled on 15S or 21S rRNA promoter DNA; with Mitochondrial transcription factor 1
T1 sequence (P13433 1-1351): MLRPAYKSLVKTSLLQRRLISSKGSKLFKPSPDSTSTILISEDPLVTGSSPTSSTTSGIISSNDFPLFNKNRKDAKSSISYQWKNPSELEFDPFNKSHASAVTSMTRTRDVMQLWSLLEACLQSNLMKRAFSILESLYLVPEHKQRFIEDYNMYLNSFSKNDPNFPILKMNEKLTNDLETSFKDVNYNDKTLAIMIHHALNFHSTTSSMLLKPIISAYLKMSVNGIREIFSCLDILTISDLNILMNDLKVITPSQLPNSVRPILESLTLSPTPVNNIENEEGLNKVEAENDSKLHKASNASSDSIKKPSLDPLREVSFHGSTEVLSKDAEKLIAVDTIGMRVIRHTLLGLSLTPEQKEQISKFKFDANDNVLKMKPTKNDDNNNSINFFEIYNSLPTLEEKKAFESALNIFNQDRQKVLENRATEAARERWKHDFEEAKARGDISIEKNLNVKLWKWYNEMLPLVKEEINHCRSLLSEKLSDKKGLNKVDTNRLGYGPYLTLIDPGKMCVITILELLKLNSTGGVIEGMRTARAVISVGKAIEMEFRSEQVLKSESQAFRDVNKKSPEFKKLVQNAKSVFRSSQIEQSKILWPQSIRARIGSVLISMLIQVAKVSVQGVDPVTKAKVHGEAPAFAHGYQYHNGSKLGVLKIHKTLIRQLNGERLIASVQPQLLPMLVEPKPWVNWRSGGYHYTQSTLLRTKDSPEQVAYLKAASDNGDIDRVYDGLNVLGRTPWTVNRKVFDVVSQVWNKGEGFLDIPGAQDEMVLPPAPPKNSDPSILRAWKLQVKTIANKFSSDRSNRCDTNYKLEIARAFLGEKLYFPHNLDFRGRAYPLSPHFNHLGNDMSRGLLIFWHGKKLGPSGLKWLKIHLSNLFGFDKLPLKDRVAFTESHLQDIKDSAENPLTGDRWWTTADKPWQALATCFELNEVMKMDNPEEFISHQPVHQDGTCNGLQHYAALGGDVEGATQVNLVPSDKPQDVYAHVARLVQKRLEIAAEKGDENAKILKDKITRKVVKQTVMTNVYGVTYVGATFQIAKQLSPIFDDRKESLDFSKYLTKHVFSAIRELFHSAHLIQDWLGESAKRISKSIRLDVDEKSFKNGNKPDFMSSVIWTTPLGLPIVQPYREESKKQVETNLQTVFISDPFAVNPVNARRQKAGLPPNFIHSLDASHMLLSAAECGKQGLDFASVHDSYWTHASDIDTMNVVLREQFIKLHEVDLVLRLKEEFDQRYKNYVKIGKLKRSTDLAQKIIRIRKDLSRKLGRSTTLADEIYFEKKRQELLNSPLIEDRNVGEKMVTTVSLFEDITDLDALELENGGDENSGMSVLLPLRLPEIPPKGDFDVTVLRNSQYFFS
T1 sequence (P14908 2-341 partner): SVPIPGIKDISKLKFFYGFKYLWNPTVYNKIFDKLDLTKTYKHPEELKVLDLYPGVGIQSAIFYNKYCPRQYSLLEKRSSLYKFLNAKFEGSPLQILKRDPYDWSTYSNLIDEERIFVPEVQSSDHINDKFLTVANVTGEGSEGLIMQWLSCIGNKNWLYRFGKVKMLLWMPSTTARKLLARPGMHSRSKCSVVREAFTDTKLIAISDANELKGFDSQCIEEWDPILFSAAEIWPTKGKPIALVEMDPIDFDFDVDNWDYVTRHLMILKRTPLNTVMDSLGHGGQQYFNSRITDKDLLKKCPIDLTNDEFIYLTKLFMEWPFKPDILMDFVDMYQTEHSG

[2] = target: T1, Rpo41-Mtf1 (yeast mitochondrial RNA polymerase with initiation factor Mtf1) on promoter DNA; assay: radiometric gel assay of 2-mer RNA synthesis, Michaelis-Menten fit; type: biochemical; conditions: 21S rRNA AA promoter, [γ-32P]ATP, 1 μM Rpo41, 2 μM Mtf1-Δ20, 10 mM Mg acetate, pH 7.5, 25 °C
[3] = target: T1, Rpo41-Mtf1 (yeast mitochondrial RNA polymerase with initiation factor Mtf1) on promoter DNA; assay: 2-aminopurine fluorescence titration, hyperbolic fit; type: binding; conditions: composite Kd of +1 and +2 initiating ATP; 15S rRNA AA promoter with 2AP at -1 (200 nM), 400 nM Rpo41 and Mtf1-Δ20, 10 mM Mg acetate, pH 7.5, 25 °C
Rpo41;Mtf1-WT [4] = target: T2, Rpo41;Mtf1-WT (Saccharomyces cerevisiae;Saccharomyces …, UniProt P13433;P14908 28-1351;1-341, |); assay: single-molecule FRET; no initiating nucleotides; EFRET 0.14 to 0.38; 50 mM Tris-acetate pH 7.5, 100 mM potassium glutamate, 10 mM magnesium acetate, 0.01% Tween-20, 25 °C; 5 nM TAMRA-DNA; conditions: protein: recombinant;recombinant; tags: ;; copies: 1;1; label: FRET donor and acceptor (Cy3, Cy5)
[5] = substrate: Nc1ncnc2c1ncn2[C@@H]1O[C@H](COP(=O)(O)OP(=O)(O)OP(=O)(O)O)[C@@H](O)[C@H]1O; assay: radiometric gel assay of 2-mer RNA synthesis, Michaelis-Menten fit; type: biochemical, Saccharomyces cerevisiae; conditions: 21S rRNA AA promoter, [γ-32P]ATP, 1 μM Rpo41, 2 μM Mtf1, 10 mM Mg acetate, pH 7.5, 25 °C
Rpo41;Mtf1-Δ16 = Rpo41;Mtf1-Δ16 (Saccharomyces cerevisiae;Saccharomyces …, UniProt P13433;P14908 28-1351;1-325, |); assay: fluorescence anisotropy; 10 mM Mg acetate; Kd in Figure S2C table not in the material; 50 mM Tris-acetate pH 7.5, 100 mM potassium glutamate, 10 mM magnesium acetate, 0.01% Tween-20, 25 °C; 5 nM TAMRA-DNA; conditions: protein: recombinant;recombinant; tags: ;; copies: 1;1; label: TAMRA at 5' end of template strand (strand 2); blunt
Rpo41;Mtf1-Δ16, sequence (P14908 1-325, stated change not applied, one chain of several): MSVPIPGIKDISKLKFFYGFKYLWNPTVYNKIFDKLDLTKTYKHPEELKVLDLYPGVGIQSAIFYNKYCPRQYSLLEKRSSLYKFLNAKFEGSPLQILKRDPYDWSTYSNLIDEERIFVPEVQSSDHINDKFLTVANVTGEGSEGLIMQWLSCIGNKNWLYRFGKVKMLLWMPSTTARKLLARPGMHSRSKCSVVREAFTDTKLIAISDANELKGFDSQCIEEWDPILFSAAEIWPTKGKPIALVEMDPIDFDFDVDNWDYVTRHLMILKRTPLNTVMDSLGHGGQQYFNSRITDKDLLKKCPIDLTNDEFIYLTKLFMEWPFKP

Rpo41;Mtf1-WT [6] = target: T2, Rpo41;Mtf1-WT; assay: fluorescence anisotropy; 10 mM Mg acetate; 50 mM Tris-acetate pH 7.5, 100 mM potassium glutamate, 10 mM magnesium acetate, 0.01% Tween-20, 25 °C; 5 nM TAMRA-DNA; conditions: protein: recombinant;recombinant; tags: ;; copies: 1;1; label: TAMRA at 5' end of template strand (strand 2); blunt
Rpo41;Mtf1-Δ20 = Rpo41;Mtf1-Δ20 (Saccharomyces cerevisiae;Saccharomyces …, UniProt P13433;P14908 28-1351;1-321, |); assay: as above; conditions: protein: recombinant;recombinant; tags: ;; copies: 1;1; label: TAMRA at 5' end of template strand (strand 2); blunt
Rpo41;Mtf1-Δ20, sequence (P14908 1-321, stated change not applied, chain 2 of 2, one chain of several): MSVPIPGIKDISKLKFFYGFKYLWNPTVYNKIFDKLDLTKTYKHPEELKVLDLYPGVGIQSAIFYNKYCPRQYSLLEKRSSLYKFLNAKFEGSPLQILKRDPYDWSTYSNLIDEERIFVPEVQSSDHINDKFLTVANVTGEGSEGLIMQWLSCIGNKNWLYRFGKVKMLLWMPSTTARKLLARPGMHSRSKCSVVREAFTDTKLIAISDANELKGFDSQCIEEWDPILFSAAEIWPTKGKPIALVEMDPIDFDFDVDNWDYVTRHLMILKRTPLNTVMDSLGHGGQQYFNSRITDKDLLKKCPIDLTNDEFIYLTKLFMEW

Kd [1]: 65 µM | Km [2]: 364 µM | Kd [3]: 500 µM
Molecule: Nc1ncnc2c1ncn2[C@@H]1O[C@H](COP(=O)(O)OP(=O)(O)OP(=O)(O)O)[C@@H](O)[C@H]1O [ATP]

B1: smFRET promoter DNA template (position 0) (dsDNA)
DNA 1: TGGCCACGGCAGCGAGGCTATTATATATATAAGTAGTAACAAGTAGAATA
DNA 2: TATTCTACTTGTTACTACTTATATATATAATAGCCTCGCTGCCGTGGCCA
binding result (Rpo41;Mtf1-WT [4]): binds

B2: Rpo41-Mtf1 (yeast mitochondrial RNA polymerase with initiation factor Mtf1) on promoter DNA (Saccharomyces cerevisiae S288C) (protein)
chain: T1 sequence (P13433 1-1351)
notes: assembled on 15S or 21S rRNA promoter DNA; with Mitochondrial transcription factor 1
Km [5]: 165 µM | kcat [5]: 0.4 s⁻¹

B3: 15S rRNA AA promoter -12 to +8 (dsDNA)
DNA 1: TATTATATAAGTAATAAATA
DNA 2: TATTTATTACTTATATAATA
binding signal (Rpo41;Mtf1-Δ16): ~7 fold weaker than Mtf1-WT | Kd (Rpo41;Mtf1-WT [6]): 0.00012 ± 5e-05 µM | Kd (Rpo41;Mtf1-Δ20): 0.00081 ± 0.0001 µM
